Assay results taken from PMC5714350.

Tests used:
P27838 [1] = assay: dynamic light scattering; CyaY with Fe2+ 6:1 (DFO also 8:1) for 15 min, then chelator (deferiprone, DFO or BIPY) at 3 times the amount of iron; conditions: other: dynamic light scattering
P27838 [2] = assay: dynamic light scattering; CyaY 2 mg/ml (0.16 mM) with ammonium iron (II) sulfate, Fe2+:protein 1:1, 2:1, 4:1, 6:1, 8:1, 10:1; 1 h at 30°C; volume distribution; conditions: other: dynamic light scattering

B1: E. coli frataxin CyaY (protein)
chain: MNDSEFHRLADQLWLTIEERLDDWDGDSDIDCEINGGVLTITFENGSKIIINRQEPLHQVWLATKQGGYHFDLKGDEWICDRSGETFWDLLEQAATQQAGETVSFR
- % of particles in the monomer range (hydrodynamic radius 1.6–2.1 nm), with iron (Fe2+ 6:1) and BIPY (P27838 [1]): 76%
- % of particles in the monomer range (hydrodynamic radius 1.6–2.1 nm), with iron (Fe2+ 6:1) and DFO (P27838 [1]): 93%
- % of particles with hydrodynamic radius 2.2–2.9 nm (smaller oligomers), with iron (Fe2+ 6:1) and deferiprone (P27838 [1]): 95%
- % of particles with hydrodynamic radius 6.0–8.5 nm (oligomers), with iron (Fe2+ 6:1) and BIPY (P27838 [1]): 24%
- % of particles with hydrodynamic radius 6.0–8.5 nm (oligomers), with iron (Fe2+ 6:1) and DFO (P27838 [1]): 7%
- % of particles with hydrodynamic radius 8.5–14 nm (oligomers), with iron (Fe2+ 6:1) and deferiprone (P27838 [1]): 5%
- % of particles with hydrodynamic radius 8.5–14 nm (oligomers), with iron (Fe2+ 8:1) and DFO (P27838 [1]): (8.5–14 nm, 100%, Fig 3B)
- % of particles with hydrodynamic radius 3.0–5.9 nm (oligomers), with iron (Fe2+ 6:1) (P27838 [2]): 77%
- % of particles with hydrodynamic radius 6–8.5 nm (oligomers), with iron (Fe2+ 8:1) (P27838 [2]): about 74% of the particles having a hydrodynamic radius in the range of 6–8.5 nm
- % of particles with hydrodynamic radius 8.5–14 nm (oligomers), with iron (Fe2+ 6:1) (P27838 [2]): 23%
- % of particles with hydrodynamic radius 8.5–14 nm (oligomers), with iron (Fe2+ 8:1) (P27838 [2]): (25% and 1%, respectively, not shown)
- % of particles with hydrodynamic radius 8.5–14 nm (oligomers), with iron (Fe2+ 10:1) (P27838 [2]): 8.5–14 nm (83%)
- % of particles with hydrodynamic radius 26–40 nm (oligomers), with iron (Fe2+ 10:1) (P27838 [2]): 26–40 nm (17%)
- % of particles with hydrodynamic radius >100 nm, with iron (Fe2+ 8:1) (P27838 [2]): (25% and 1%, respectively, not shown)
